Results: publication PMC314469, “Protein Interaction Networks by Proteome Peptide Scanning” (PLoS Biology, 2004)

T1: Boi1 SH3 (BOI1_YEAST), P38041
T1 chain: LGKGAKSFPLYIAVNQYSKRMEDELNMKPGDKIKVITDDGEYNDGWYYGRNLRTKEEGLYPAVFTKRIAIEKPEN

T2: Boi2 SH3 (BOI2_YEAST), P39969
T2 chain: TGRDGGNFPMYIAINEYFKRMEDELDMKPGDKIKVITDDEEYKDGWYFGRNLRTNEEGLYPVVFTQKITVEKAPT

T3: Myo5 SH3 (MYO5_YEAST), Q04439
T3 chain: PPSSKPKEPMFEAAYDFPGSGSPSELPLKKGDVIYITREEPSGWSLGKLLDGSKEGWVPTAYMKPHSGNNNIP

T4: Rvs167 SH3 (RV167_YEAST), P39743
T4 chain: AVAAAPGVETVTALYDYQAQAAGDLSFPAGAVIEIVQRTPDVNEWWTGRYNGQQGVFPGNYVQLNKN

T5: Yfr024 SH3 (LSB3_YEAST), P43603
T5 chain: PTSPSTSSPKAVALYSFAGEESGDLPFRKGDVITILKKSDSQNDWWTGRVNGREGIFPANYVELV

T6: Yhr016c SH3 (YSC84_YEAST), P32793
T6 chain: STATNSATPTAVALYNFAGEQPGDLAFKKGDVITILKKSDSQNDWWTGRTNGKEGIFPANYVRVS


Key:
Assay in all cases: SPOT array
[1] = target: T1, Boi1 SH3 (BOI1_YEAST), P38041
[2] = target: T2, Boi2 SH3 (BOI2_YEAST), P39969
[3] = target: T3, Myo5 SH3 (MYO5_YEAST), Q04439
[4] = target: T4, Rvs167 SH3 (RV167_YEAST), P39743
[5] = target: Sho1 SH3 (SHO1_YEAST), P40073
Sho1 SH3 (SHO1_YEAST), P40073, sequence (P40073 295-366): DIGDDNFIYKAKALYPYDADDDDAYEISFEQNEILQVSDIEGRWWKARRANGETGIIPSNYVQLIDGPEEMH

[6] = target: T5, Yfr024 SH3 (LSB3_YEAST), P43603
[7] = target: T6, Yhr016c SH3 (YSC84_YEAST), P32793

normalised SPOT signal, Boehringer light units (BLU); mean over the file's lines of this peptide [1]	normalised SPOT signal, Boehringer light units (BLU); mean over the file's lines of this peptide [2]	normalised SPOT signal, Boehringer light units (BLU); mean over the file's lines of this peptide [3]	normalised SPOT signal, Boehringer light units (BLU); mean over the file's lines of this peptide [4]	normalised SPOT signal, Boehringer light units (BLU); mean over the file's lines of this peptide [5]	normalised SPOT signal, Boehringer light units (BLU); mean over the file's lines of this peptide [6]	normalised SPOT signal, Boehringer light units (BLU); mean over the file's lines of this peptide [7]	Binder
273	325	518	716	323	2780	316	QLINRFMPHFPSSP [YHR036W 42-55]
104	12	218	52	37.3	105	19.3	QRLDRDKPHEPNGY [YDL076C 274-287]
142	0	111	79.8	36.4	66.9	33.6	QFALKNTPITPGSS [YGR061C 462-475]
19.4	13.7	156	48.2	78.5	48.8	19.4	QPPDRNLPSHPSSN [YGR143W 154-167]
2560	40.3	956	70.6	88.9	12.8	9.7	QHKPKVKPSKPEAK [YHL007C 236-249]

More lines, now with the values behind:

Binder	normalised SPOT signal, Boehringer light units (BLU); mean over the file's lines of this peptide [1]	normalised SPOT signal, Boehringer light units (BLU); mean over the file's lines of this peptide [2]	normalised SPOT signal, Boehringer light units (BLU); mean over the file's lines of this peptide [3]	normalised SPOT signal, Boehringer light units (BLU); mean over the file's lines of this peptide [4]	normalised SPOT signal, Boehringer light units (BLU); mean over the file's lines of this peptide [5]	normalised SPOT signal, Boehringer light units (BLU); mean over the file's lines of this peptide [6]	normalised SPOT signal, Boehringer light units (BLU); mean over the file's lines of this peptide [7]
QVYEKTIPLFPPEI [YDR416W 606-619]	11	3.6	153	22.8	31.6	9.3	5.4
QTVIKTHPRIPKSE [YMR211W 94-107]	213	17.1	186	9.1	67	134	63.7
QNGLRFNPDVPKLW [YDR449C 169-182]	64.6	0	260	22.1	37.6	86.7	8.3
QGSNKYSPSSPLTT [YDR122W 964-977]	34.7	31.3	171	37.5	44.3	74.9	146
QIVNKPLPPLPVAG [YJL128C 89-102]	56.1	13.7	249	41.5	60100	1720	28.6
QTGSKTVPQAPQAP [YLR095C 762-775]	45.3	17.8	62.9	56.5	37.7	6.6	28.7
QSEEKEKPKGPMAV [YIL122W 8-21]	88.1	16.6	197	20.6	36.1	109	18.1
QLQEKLSPDLPDEE [YGL173C 401-414]	49.4	27.9	216	59.4	27.1	11.2	16.4
QSINRSIPSAPYGA [YBL081W 84-97]	37.4	122	208	89	44.4	178	42.2
QELPRAIPVMPFVD [YJL020C 471-484]	-0	22.2	118	57	11.6	700	118
QSKTKPLPVEPASP [YCR030C 484-497]	80.3	5.9	122	90.1	9780	64.3	65.4
